{"source": "patent US20210277140A1", "binders": {"B1": {"name": "anti human CD47 (mouse antibody), clone B6H12 (antibody, from another filing, IgG1, V domains shown)", "VH": "EVQLVESGGDLVKPGGSLKLSCAASGFTFSGYGMSWVRQTPDKRLEWVATITSGGTYTYYPDSVKGRFTISRDNAKNTLYLQIDSLKSEDTAIYFCARSLAGNAMDYWGQGTSVTVSS", "VL": "DIVMTQSPATLSVTPGDRVSLSCRASQTISDYLHWYQQKSHESPRLLIKFASQSISGIPSRFSGSGSGSDFTLSINSVEPEDVGVYYCQNGHGFPRTFGGGTKLEIK"}}, "biological_target": "CD47 on Raji B cells (human) (UniProt Q08722)", "assay": "cell-based or functional assay", "data": [{"binder": "B1", "values": [{"measurement": "whole cell eating of Raji B cells by CAR-P^FcRγ macrophages, antibody at 20 µg/ml", "result": 2.5, "unit": "fold"}]}]}
